Test results as given in patent publication CN111393528A (UNIV CHINA PHARMA, dated 2020).

Target: T1, FRα重组蛋白 (叶酸受体α, folate receptor α recombinant protein) (UniProt P15328 25-233, limits assumed)
T1 construct: Recombinant protein used for panning and ELISA (coated) and, after biotinylation (biotin:protein 20:1), on streptavidin sensors for BLI
Assay: BLI (ForteBio Octet), biotinylated FRα on streptavidin sensor, scFv in solution

T1 sequence (P15328 25-233 limits assumed): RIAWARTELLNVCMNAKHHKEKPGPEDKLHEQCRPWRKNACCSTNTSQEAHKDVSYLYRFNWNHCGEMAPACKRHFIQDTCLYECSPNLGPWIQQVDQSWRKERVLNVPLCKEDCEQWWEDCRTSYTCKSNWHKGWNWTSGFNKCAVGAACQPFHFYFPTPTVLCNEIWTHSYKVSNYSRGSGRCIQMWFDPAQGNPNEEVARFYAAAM

B1: FR ScFv (靶向叶酸受体α的单链抗体) (scFv)
scFv: QAQLLESGGGLVQPGGSLRLSCAASGFTFSSYAMSWVRQAPGKGLEWVSAISGSGGSTYYADSVEGRFTISRDNSKNTLYLQMNSLRAEDTAVYYCARRAVGRGWRFWGQGTMVTVSSGGGGSGGGGSGGGGSDIVLTQSPSASGTPGQRVTISCSGSSSNIGSNYVYWYQQLPGTAPKLLIYRNNQRPSGVSDRFSGSKSGTSASLAISGLRSEDEADYYCAAWDDSLSARVFGGGTKVDIKR
notes: Soluble scFv expressed in E. coli BL21 from pET22b (BamH I/Hind III), purified on a nickel column; about 28.32 kDa; Vector-derived residues at the N-terminus (pelB leader, cloning site) are not described; also called 叶酸受体α单链抗体; FRα单链抗体; not shown: C-terminal His tag from the pET22b vector (fused downstream of the gene)
Kd: 41.3 nM | koff: 0.00127 s⁻¹ | kon: 30900 M⁻¹ s⁻¹
